Bridge positions count the residues as written; N and C are the ends. Square brackets hold non-standard residues; d marks the D form. Primed or numbered codes have the meaning given here. Ends that are not written are not given here. * marks the point of attachment. Tranexamic″ = tranexamic acid, NC[C@H]1CC[C@@H](C(=O)*)CC1; Pro(trans-4-F) = O=C(O)[C@@H]1C[C@@H](F)CN1; Oic = O=C(O)[C@@H]1C[C@@H]2CCCC[C@@H]2N1; Cyclobutylacetic = O=C(CC1CCC1)*; aIle = CC[C@@H](C)[C@H](N)C(=O)O; tBuAla = CC(C)(C)C[C@H](N)C(=O)O; aThr = C[C@H](O)[C@H](N)C(=O)O; Chg = N[C@H](C(=O)O)C1CCCCC1; Pen = CC(C)(S)[C@H](N)C(=O)O; αMeP = C[C@@]1(C(=O)O)CCCN1; NMeC = CN[C@@H](CS)C(=O)O; Aib = CC(C)(N)C(=O)O; Sar = CNCC(=O)O
T1: Recombinant human MASP1 enzyme (fragment corresponding to amino acids 297-699, C-terminal His Tag) (human, UniProt P48740 297-699)
T1 sequence: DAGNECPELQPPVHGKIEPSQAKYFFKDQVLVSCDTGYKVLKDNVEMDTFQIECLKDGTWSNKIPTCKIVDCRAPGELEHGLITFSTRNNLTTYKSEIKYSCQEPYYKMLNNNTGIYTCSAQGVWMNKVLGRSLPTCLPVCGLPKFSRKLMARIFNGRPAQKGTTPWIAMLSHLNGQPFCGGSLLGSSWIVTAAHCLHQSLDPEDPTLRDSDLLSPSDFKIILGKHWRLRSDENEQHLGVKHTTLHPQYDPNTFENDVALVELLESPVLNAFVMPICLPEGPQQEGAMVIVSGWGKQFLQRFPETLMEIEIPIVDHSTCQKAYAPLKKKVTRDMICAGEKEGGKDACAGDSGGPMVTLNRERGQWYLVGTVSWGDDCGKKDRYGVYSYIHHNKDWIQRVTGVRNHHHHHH

B1: AIC+SRS-(3-(Trimethylsilyl)-L-alanine)-P-(Oic)-I-((N-Me)C)+IPD-NH2 (peptide)
peptide: AICSRS[3‑(Trimethylsilyl)‑L‑alanine]P[Oic]I[NMeC]IPD-NH2
modifications: disulfide 3-11
B2: Ac-IC+SRS-((tBu)A)-PPI-((N-Me)C)+I-NH2 (peptide)
peptide: Ac-ICSRS[tBuAla]PPI[NMeC]I-NH2
modifications: disulfide 2-10
SMILES: CC[C@H](C)[C@H](NC(=O)[C@@H]1CSSC[C@H](NC(=O)[C@@H](NC(C)=O)[C@@H](C)CC)C(=O)N[C@@H](CO)C(=O)N[C@@H](CCCNC(=N)N)C(=O)N[C@@H](CO)C(=O)N[C@@H](CC(C)(C)C)C(=O)N2CCC[C@H]2C(=O)N2CCC[C@H]2C(=O)N[C@@H]([C@@H](C)CC)C(=O)N1C)C(N)=O
B3: ((N-Me)G)-IC+SRSLPPIC+(allo-I)-PD-NH2 (peptide)
peptide: [Sar]ICSRSLPPIC[aIle]PD-NH2
modifications: disulfide 3-11; N-terminus assumed
SMILES: CC[C@@H](C)[C@H](NC(=O)[C@@H]1CSSC[C@H](NC(=O)[C@@H](NC(=O)CNC)[C@@H](C)CC)C(=O)N[C@@H](CO)C(=O)N[C@@H](CCCNC(=N)N)C(=O)N[C@@H](CO)C(=O)N[C@@H](CC(C)C)C(=O)N2CCC[C@H]2C(=O)N2CCC[C@H]2C(=O)N[C@@H]([C@@H](C)CC)C(=O)N1)C(=O)N1CCC[C@H]1C(=O)N[C@@H](CC(=O)O)C(N)=O
B4: ((N-Me)G)-IC+SRSLPPIC+IPD-OH (peptide)
peptide: [Sar]ICSRSLPPICIPD-OH
modifications: disulfide 3-11; N-terminus assumed
SMILES: CC[C@H](C)[C@H](NC(=O)CNC)C(=O)N[C@H]1CSSC[C@@H](C(=O)N[C@H](C(=O)N2CCC[C@H]2C(=O)N[C@@H](CC(=O)O)C(=O)O)[C@@H](C)CC)NC(=O)[C@H]([C@@H](C)CC)NC(=O)[C@@H]2CCCN2C(=O)[C@@H]2CCCN2C(=O)[C@H](CC(C)C)NC(=O)[C@H](CO)NC(=O)[C@H](CCCNC(=N)N)NC(=O)[C@H](CO)NC1=O
B5: ((N-Me)G)-IC+SRSLPP-(Chg)-C+IPD-NH2 (peptide)
peptide: [Sar]ICSRSLPP[Chg]CIPD-NH2
modifications: disulfide 3-11; N-terminus assumed
SMILES: CC[C@H](C)[C@H](NC(=O)CNC)C(=O)N[C@H]1CSSC[C@@H](C(=O)N[C@H](C(=O)N2CCC[C@H]2C(=O)N[C@@H](CC(=O)O)C(N)=O)[C@@H](C)CC)NC(=O)[C@H](C2CCCCC2)NC(=O)[C@@H]2CCCN2C(=O)[C@@H]2CCCN2C(=O)[C@H](CC(C)C)NC(=O)[C@H](CO)NC(=O)[C@H](CCCNC(=N)N)NC(=O)[C@H](CO)NC1=O
B6: ((N-Me)G)-IC+TRSLPPIC+IPD-OH (peptide)
peptide: [Sar]ICTRSLPPICIPD-OH
modifications: disulfide 3-11; N-terminus assumed
SMILES: CC[C@H](C)[C@H](NC(=O)CNC)C(=O)N[C@H]1CSSC[C@@H](C(=O)N[C@H](C(=O)N2CCC[C@H]2C(=O)N[C@@H](CC(=O)O)C(=O)O)[C@@H](C)CC)NC(=O)[C@H]([C@@H](C)CC)NC(=O)[C@@H]2CCCN2C(=O)[C@@H]2CCCN2C(=O)[C@H](CC(C)C)NC(=O)[C@H](CO)NC(=O)[C@H](CCCNC(=N)N)NC(=O)[C@H]([C@@H](C)O)NC1=O
B7: AIC+SR-(allo-T)-LPPIC+IPD-NH2 (peptide)
peptide: AICSR[aThr]LPPICIPD-NH2
modifications: disulfide 3-11; N-terminus assumed
SMILES: CC[C@H](C)[C@H](NC(=O)[C@H](C)N)C(=O)N[C@H]1CSSC[C@@H](C(=O)N[C@H](C(=O)N2CCC[C@H]2C(=O)N[C@@H](CC(=O)O)C(N)=O)[C@@H](C)CC)NC(=O)[C@H]([C@@H](C)CC)NC(=O)[C@@H]2CCCN2C(=O)[C@@H]2CCCN2C(=O)[C@H](CC(C)C)NC(=O)[C@H]([C@H](C)O)NC(=O)[C@H](CCCNC(=N)N)NC(=O)[C@H](CO)NC1=O
B8: ((N-Me)G)-IC+SRSLPPIC+I-((trans-4-Fluoro)P)-D-OH (peptide)
peptide: [Sar]ICSRSLPPICI[Pro(trans-4-F)]D-OH
modifications: disulfide 3-11; N-terminus assumed
SMILES: CC[C@H](C)[C@H](NC(=O)CNC)C(=O)N[C@H]1CSSC[C@@H](C(=O)N[C@H](C(=O)N2C[C@H](F)C[C@H]2C(=O)N[C@@H](CC(=O)O)C(=O)O)[C@@H](C)CC)NC(=O)[C@H]([C@@H](C)CC)NC(=O)[C@@H]2CCCN2C(=O)[C@@H]2CCCN2C(=O)[C@H](CC(C)C)NC(=O)[C@H](CO)NC(=O)[C@H](CCCNC(=N)N)NC(=O)[C@H](CO)NC1=O
B9: GIC+SRSLPPIC+I-(Aib)-D-OH (peptide)
peptide: GICSRSLPPICI[Aib]D-OH
modifications: disulfide 3-11; N-terminus assumed
SMILES: CC[C@H](C)[C@H](NC(=O)CN)C(=O)N[C@H]1CSSC[C@@H](C(=O)N[C@H](C(=O)NC(C)(C)C(=O)N[C@@H](CC(=O)O)C(=O)O)[C@@H](C)CC)NC(=O)[C@H]([C@@H](C)CC)NC(=O)[C@@H]2CCCN2C(=O)[C@@H]2CCCN2C(=O)[C@H](CC(C)C)NC(=O)[C@H](CO)NC(=O)[C@H](CCCNC(=N)N)NC(=O)[C@H](CO)NC1=O
B10: IC+SRSLP-(Oic)-I-(Pen)+IPD-NH2 (peptide)
peptide: ICSRSLP[Oic]I[Pen]IPD-NH2
modifications: disulfide 2-10; N-terminus assumed
SMILES: CC[C@H](C)[C@H](N)C(=O)N[C@H]1CSSC(C)(C)[C@@H](C(=O)N[C@H](C(=O)N2CCC[C@H]2C(=O)N[C@@H](CC(=O)O)C(N)=O)[C@@H](C)CC)NC(=O)[C@H]([C@@H](C)CC)NC(=O)[C@@H]2C[C@@H]3CCCC[C@@H]3N2C(=O)[C@@H]2CCCN2C(=O)[C@H](CC(C)C)NC(=O)[C@H](CO)NC(=O)[C@H](CCCNC(=N)N)NC(=O)[C@H](CO)NC1=O
B11: (Tranexamic)-IC+SRS-((tBu)A)-PPI-((N-Me)C)+I-NH2 (peptide)
peptide: {Tranexamic″}-ICSRS[tBuAla]PPI[NMeC]I-NH2
modifications: disulfide 2-10
SMILES: CC[C@H](C)[C@H](NC(=O)[C@@H]1CSSC[C@H](NC(=O)[C@@H](NC(=O)[C@H]2CC[C@@H](CN)CC2)[C@@H](C)CC)C(=O)N[C@@H](CO)C(=O)N[C@@H](CCCNC(=N)N)C(=O)N[C@@H](CO)C(=O)N[C@@H](CC(C)(C)C)C(=O)N2CCC[C@H]2C(=O)N2CCC[C@H]2C(=O)N[C@@H]([C@@H](C)CC)C(=O)N1C)C(N)=O
B12: AIC+SRSLP-(Oic)-IC+I-OH (peptide)
peptide: AICSRSLP[Oic]ICI-OH
modifications: disulfide 3-11; N-terminus assumed
SMILES: CC[C@H](C)[C@H](NC(=O)[C@@H]1CSSC[C@H](NC(=O)[C@@H](NC(=O)[C@H](C)N)[C@@H](C)CC)C(=O)N[C@@H](CO)C(=O)N[C@@H](CCCNC(=N)N)C(=O)N[C@@H](CO)C(=O)N[C@@H](CC(C)C)C(=O)N2CCC[C@H]2C(=O)N2[C@@H](C[C@@H]3CCCC[C@@H]32)C(=O)N[C@@H]([C@@H](C)CC)C(=O)N1)C(=O)O
B13: (Cyclobutylacetic)-IC+SRS-((tBu)A)-PPI-(Pen)+IP-NH2 (peptide)
peptide: Cyclobutylacetic-ICSRS[tBuAla]PPI[Pen]IP-NH2
modifications: disulfide 2-10
SMILES: CC[C@H](C)[C@H](NC(=O)CC1CCC1)C(=O)N[C@H]1CSSC(C)(C)[C@@H](C(=O)N[C@H](C(=O)N2CCC[C@H]2C(N)=O)[C@@H](C)CC)NC(=O)[C@H]([C@@H](C)CC)NC(=O)[C@@H]2CCCN2C(=O)[C@@H]2CCCN2C(=O)[C@H](CC(C)(C)C)NC(=O)[C@H](CO)NC(=O)[C@H](CCCNC(=N)N)NC(=O)[C@H](CO)NC1=O
B14: FIC+SRSLP-(Oic)-I-(Pen)+IP-NH2 (peptide)
peptide: FICSRSLP[Oic]I[Pen]IP-NH2
modifications: disulfide 3-11; N-terminus assumed
SMILES: CC[C@H](C)[C@H](NC(=O)[C@@H](N)Cc1ccccc1)C(=O)N[C@H]1CSSC(C)(C)[C@@H](C(=O)N[C@H](C(=O)N2CCC[C@H]2C(N)=O)[C@@H](C)CC)NC(=O)[C@H]([C@@H](C)CC)NC(=O)[C@@H]2C[C@@H]3CCCC[C@@H]3N2C(=O)[C@@H]2CCCN2C(=O)[C@H](CC(C)C)NC(=O)[C@H](CO)NC(=O)[C@H](CCCNC(=N)N)NC(=O)[C@H](CO)NC1=O
B15: ((N-Me)G)-IC+SRSLPP-IC+I-((2-Me)P)-D-OH (peptide)
peptide: [Sar]ICSRSLPPICI[αMeP]D-OH
modifications: disulfide 3-11; N-terminus assumed
SMILES: CC[C@H](C)[C@H](NC(=O)CNC)C(=O)N[C@H]1CSSC[C@@H](C(=O)N[C@H](C(=O)N2CCC[C@@]2(C)C(=O)N[C@@H](CC(=O)O)C(=O)O)[C@@H](C)CC)NC(=O)[C@H]([C@@H](C)CC)NC(=O)[C@@H]2CCCN2C(=O)[C@@H]2CCCN2C(=O)[C@H](CC(C)C)NC(=O)[C@H](CO)NC(=O)[C@H](CCCNC(=N)N)NC(=O)[C@H](CO)NC1=O

biological target: Recombinant human MASP2 enzyme (fragment corresponding to amino acids 297-686, C-terminal His Tag) (human, UniProt O00187 297-686); assay: cell-based or functional assay
Sequence (O00187 other isoform, or with tags, fused parts or gaps limits assumed): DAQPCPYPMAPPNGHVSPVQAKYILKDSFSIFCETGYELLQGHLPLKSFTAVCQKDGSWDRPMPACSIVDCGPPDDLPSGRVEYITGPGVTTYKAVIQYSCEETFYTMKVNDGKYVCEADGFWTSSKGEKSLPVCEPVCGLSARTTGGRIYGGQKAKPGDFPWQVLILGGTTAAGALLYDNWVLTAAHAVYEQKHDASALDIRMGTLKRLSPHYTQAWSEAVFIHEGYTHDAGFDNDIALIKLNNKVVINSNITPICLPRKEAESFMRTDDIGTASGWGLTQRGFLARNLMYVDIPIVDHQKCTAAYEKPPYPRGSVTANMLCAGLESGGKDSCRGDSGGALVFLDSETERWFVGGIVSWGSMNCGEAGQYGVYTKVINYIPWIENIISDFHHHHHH

First: B1
Second: B2
The “human MASP2 IC50” value of the first is 18-fold higher: 1100 nM for the first, 61 nM for the second.

First: B3
Second: B4
The “human MASP2 IC50” value of the first is 3.1-fold lower: 170 nM for the first, 535 nM for the second.

First: B5
Second: B6
The “human MASP2 IC50” value of the first is 7.3-fold lower: 891 nM for the first, 6500 nM for the second.

B7 and B8 are within 1.5-fold of each other in “human MASP2 IC50” value: 330 nM for the first, 490 nM for the second.

Going from B9 to B10, the “human MASP2 IC50” value rises from 160 nM to 603 nM (3.8-fold).

Compared with B11, B12 is 36-fold higher in “human MASP2 IC50” value: 26 nM for the first, 930 nM for the second.

First: B13
Second: B14
The “human MASP2 IC50” value of the first is 8.7-fold lower: 9.3 nM for the first, 81 nM for the second.

In the case of B15, the “human MASP2 IC50” value is reported as 160 nM.

biological target: T1, Recombinant human MASP1 enzyme …; assay: cell-based or functional assay

B1 and B2 are the same in “human MASP1 IC50” value: 14 nM for the first, 14 nM for the second.

B3 and B4 are within 1.5-fold of each other in “human MASP1 IC50” value: 14 nM for the first, 15 nM for the second.

B5 and B6 are within 1.5-fold of each other in “human MASP1 IC50” value: 15 nM for the first, 16 nM for the second.

B7 and B8 are within 1.5-fold of each other in “human MASP1 IC50” value: 14 nM for the first, 16 nM for the second.

B9 and B10 are within 1.5-fold of each other in “human MASP1 IC50” value: 16 nM for the first, 17 nM for the second.

B11 and B12 are within 1.5-fold of each other in “human MASP1 IC50” value: 15 nM for the first, 16 nM for the second.

B13 and B14 are within 1.5-fold of each other in “human MASP1 IC50” value: 15 nM for the first, 16 nM for the second.

B15 was tested, and the “human MASP1 IC50” value was 16 nM.

Source: patent US20210246166A1 (Bayer, published 2021)
